Source: patent CN105542007A (UNIV NANCHANG, dated 2016)

Experiments:
[1] = molecular target: T1, 重组表达的PSMA胞外区蛋白 (recombinant extracellular domain of prostate-specific membrane antigen, expressed in HEK-293) (UniProt Q04609 44-750, limits assumed); assay: indirect phage-ELISA, PSMA extracellular domain coated at 5 μg/mL, HRP-anti-M13 detection
T1 construct: extracellular domain; Cloned into pRAG2a via NotI/BamHI, secreted from HEK-293 cells and purified with HisTrap; also called 前列腺特异性膜抗原膜外区; PSMA蛋白; not shown: His tag (purified with HisTrap, detected with anti-His antibody)
T1 sequence (Q04609 44-750 limits assumed): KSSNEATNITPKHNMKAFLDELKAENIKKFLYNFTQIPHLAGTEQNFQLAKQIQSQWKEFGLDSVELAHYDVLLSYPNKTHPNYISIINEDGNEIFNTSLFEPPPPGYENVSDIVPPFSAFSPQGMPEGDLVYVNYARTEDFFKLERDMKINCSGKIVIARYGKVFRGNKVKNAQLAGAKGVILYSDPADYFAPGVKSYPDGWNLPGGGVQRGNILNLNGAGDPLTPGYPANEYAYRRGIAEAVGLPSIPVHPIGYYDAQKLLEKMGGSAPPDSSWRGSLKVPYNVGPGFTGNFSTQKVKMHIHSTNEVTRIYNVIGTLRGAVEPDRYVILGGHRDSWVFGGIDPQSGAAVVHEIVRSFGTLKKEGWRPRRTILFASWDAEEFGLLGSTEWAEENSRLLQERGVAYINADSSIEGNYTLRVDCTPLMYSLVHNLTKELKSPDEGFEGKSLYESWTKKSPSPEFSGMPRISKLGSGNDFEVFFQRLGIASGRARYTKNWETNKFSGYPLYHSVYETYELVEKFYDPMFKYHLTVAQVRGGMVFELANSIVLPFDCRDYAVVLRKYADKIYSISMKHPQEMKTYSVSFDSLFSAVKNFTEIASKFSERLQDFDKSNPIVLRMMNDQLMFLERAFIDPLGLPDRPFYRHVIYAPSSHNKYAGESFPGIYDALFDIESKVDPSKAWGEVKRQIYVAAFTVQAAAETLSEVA

[2] = molecular target: T2, 前列腺特异性膜抗原 (PSMA) on LNCaP prostate cancer cells (UniProt Q04609 1-750, limits assumed); assay: cell ELISA on fixed LNCaP (PSMA+) against MKN45 (PSMA-) cells, HRP-anti-M13 detection, OD450
T2 construct: whole, on cells; Endogenous PSMA on fixed LNCaP cells; also called LNCaP细胞(表达PSMA)
T2 sequence (Q04609 whole entry): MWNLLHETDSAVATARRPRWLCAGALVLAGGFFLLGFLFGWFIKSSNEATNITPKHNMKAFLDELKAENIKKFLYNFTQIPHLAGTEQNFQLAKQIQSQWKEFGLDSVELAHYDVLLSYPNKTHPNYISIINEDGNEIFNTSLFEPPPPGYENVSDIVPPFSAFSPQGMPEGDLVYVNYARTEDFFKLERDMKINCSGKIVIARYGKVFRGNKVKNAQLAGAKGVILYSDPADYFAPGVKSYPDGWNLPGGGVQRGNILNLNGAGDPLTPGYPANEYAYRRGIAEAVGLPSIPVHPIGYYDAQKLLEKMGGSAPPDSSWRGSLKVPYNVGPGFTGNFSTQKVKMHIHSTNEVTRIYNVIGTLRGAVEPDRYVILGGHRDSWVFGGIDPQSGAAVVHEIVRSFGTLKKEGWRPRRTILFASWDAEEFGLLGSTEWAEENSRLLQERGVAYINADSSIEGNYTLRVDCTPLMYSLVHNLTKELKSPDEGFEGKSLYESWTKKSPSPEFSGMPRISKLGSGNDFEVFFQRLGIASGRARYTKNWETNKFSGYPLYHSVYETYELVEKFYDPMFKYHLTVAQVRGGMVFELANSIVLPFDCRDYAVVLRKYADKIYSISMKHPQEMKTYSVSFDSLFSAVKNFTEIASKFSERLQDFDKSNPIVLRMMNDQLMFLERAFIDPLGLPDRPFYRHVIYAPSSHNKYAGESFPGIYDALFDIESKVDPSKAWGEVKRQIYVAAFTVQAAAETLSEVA

B1: 抗前列腺特异性膜抗原单域重链抗体噬菌体阳性克隆 (phage clone displaying the anti-PSMA single-domain heavy-chain antibody of SEQ ID NO: 1) (VHH)
VHH: QLQLVESGGGLVQAGGSLRLSCAASGRTFSRYAVGWFRQAPGKEREFVSGLSWTGSSTLYADSVKGRFTFSRDNAKKMVYLQMNTLMPEDTAVYYCAARKTRGKSYEYWGQGTQVTVSS
notes: VHH selected from a naive camelid phage display library; It was tested as a phage particle and detected with anti-M13 antibody, not as a purified protein; also called 针对前列腺特异性膜抗原的单域重链抗体阳性克隆; 展示本发明所述纳米抗体的噬菌体克隆; not shown: the phage coat protein fusion and any linker or tag are not described
- binding result [1]: binds
- binding result [2]: binds
